Experiments:
CI-MPR receptor [1] = experiment: CIMPR binding assay, PPT1 conditioned media, curves starting at 25 nM, bound PPT1 activity; the table prints no units, units of the axes
CI-MPR receptor [2] = experiment: CIMPR binding assay, PPT1 conditioned media, dilution starting at 50 nM, bound PPT1 activity; the table prints no units, units of the axes

Bmax (CI-MPR receptor [1]) | Kd (CI-MPR receptor [1]) | Bmax (CI-MPR receptor [2]) | Kd (CI-MPR receptor [2]) | Binder
73.5 nmol/mL/h | 4.45 nM | 73.5 nmol/mL/h | 4.45 nM | PPT1-105 (enzyme, part only; not given: linker identity, part only) fusion protein, part: SRALQHLDPPAPLPLVIWHGMGDSCCNPLSMGAIKKMVEKKIPGIYVLSLEIGKTLMEDVENSFFLNVNSQVTTVCQALAKDPKLQQGYNAMGFSQGGQFLRAVAQRCPSPPMINLISVGGQHQGVFGLPRCPGESSHICDFIRKTLNAGAYSKVVQERLVQAEYWHDPIKEDVYRNHSIFLADINQERGINESYKKNLMALKKFVMVKFLNDSIVDPVDSEWFGFYRSGQAKETIPLQETSLYTQDRLGLKEMDNAGQLVFLATEGDHLQLSEEWFYAHIIPFLGRPRAVPTQSRTLCGGELVDTLQFVCGDRGFLFSRGGGGSRGILEECCFRDCDLALLETYCATPARSE
91.4 nmol/mL/h | 5.46 nM | 91.4 nmol/mL/h | 5.46 nM | PPT1-106 (enzyme, part only; not given: linker identity, part only) fusion protein, part: SRALQHLDPPAPLPLVIWHGMGDSCCNPLSMGAIKKMVEKKIPGIYVLSLEIGKTLMEDVENSFFLNVNSQVTTVCQALAKDPKLQQGYNAMGFSQGGQFLRAVAQRCPSPPMINLISVGGQHQGVFGLPRCPGESSHICDFIRKTLNAGAYSKVVQERLVQAEYWHDPIKEDVYRNHSIFLADINQERGINESYKKNLMALKKFVMVKFLNDSIVDPVDSEWFGFYRSGQAKETIPLQETSLYTQDRLGLKEMDNAGQLVFLATEGDHLQLSEEWFYAHIIPFLGRPRAVPTQSRTLCGGELVDTLQFVCGDRGFLFSRGGGGSRGILEECCFRECDLALLETYCATPARSE
